According to paper PMC8930625 (Journal of inorganic biochemistry, 2022):

B1: Methyl-Coenzyme M Reductase (MCR) chain B (natural protein, Methanothermobacter marburgensis, UniProt P11560 1-443, looked up)
chain: MAKFEDKVDLYDDRGNLVEEQVPLEALSPLRNPAIKSIVQGIKRTVAVNLEGIENALKTAKVGGPACKIMGRELDLDIVGNAESIAAAAKEMIQVTEDDDTNVELLGGGKRALVQVPSARFDVAAEYSAAPLVTATAFVQAIINEFDVSMYDANMVKAAVLGRYPQSVEYMGANIATMLDIPQKLEGPGYALRNIMVNHVVAATLKNTLQAAALSTILEQTAMFEMGDAVGAFERMHLLGLAYQGMNADNLVFDLVKANGKEGTVGSVIADLVERALEDGVIKVEKELTDYKVYGTDDLAMWNAYAAAGLMAATMVNQGAARAAQGVSSTLLYYNDLIEFETGLPSVDFGKVEGTAVGFSFFSHSIYGGGGPGIFNGNHIVTRHSKGFAIPCVAAAMALDAGTQMFSPEATSGLIKEVFSQVDEFREPLKYVVEAAAEIKNEI
B2: Methyl-Coenzyme M Reductase (MCR) chain C (natural protein, Methanothermobacter marburgensis, UniProt P11562 1-249, looked up)
chain: MAQYYPGTTKVAQNRRNFCNPEYELEKLREISDEDVVKILGHRAPGEEYPSVHPPLEEMDEPEDAIREMVEPIDGAKAGDRVRYIQFTDSMYFAPAQPYVRSRAYLCRYRGADAGTLSGRQIIETRERDLEKISKELLETEFFDPARSGVRGKSVHGHSLRLDEDGMMFDMLRRQIYNKDTGRVEMVKNQIGDELDEPVDLGEPLDEETLMEKTTIYRVDGEAYRDDVEAVEIMQRIHVLRSQGGFNLE
B3: Methyl-Coenzyme M Reductase (MCR) heterotrimer of chains A, B and C, MCRred1-silent Ni(II) form (complex, Methanothermobacter marburgensis)
chain 1: MADKLFINALKKKFEESPEEKKTTFYTLGGWKQSERKTEFVNAGKEVAAKRGIPQYNPDIGTPLGQRVLMPYQVSTTDTYVEGDDLHFVNNAAMQQMWDDIRRTVIVGLNHAHAVIEKRLGKEVTPETITHYLETVNHAMPGAAVVQEHMVETHPALVADSYVKVFTGNDEIADEIDPAFVIDINKQFPEDQAETLKAEVGDGIWQVVRIPTIVSRTCDGATTSRWSAMQIGMSMISAYKQAAGEAATGDFAYAAKHAEVIHMGTYLPVRRARGENEPGGVPFGYLADICQSSRVNYEDPVRVSLDVVATGAMLYDQIWLGSYMSGGVGFTQYATAAYTDNILDDFTYFGKEYVEDKYGLCEAPNNMDTVLDVATEVTFYGLEQYEEYPALLEDQFGGSQRAAVVAAAAGCSTAFATGNAQTGLSGWYLSMYLHKEQHSRLGFYGYDLQDQCGASNVFSIRGDEGLPLELRGPNYPNYAMNVGHQGEYAGISQAPHAARGDAFVFNPLVKIAFADDNLVFDFTNVRGEFAKGALREFEPAGERALITPAK
chain 2: B1 chain
chain 3: B2 chain

Tests used:
Experiment in all cases: crystal structure
[1] = target: T1, Methyl-Coenzyme M Reductase (MCR) chain A (Methanothermobacter marburgensis, UniProt P11558 1-550)
T1 sequence (looked up): B3 chain 1

[2] = target: B1
crystal structure = target: the molecule itself

Binder | binding result [1] | binding result [2] | stoichiometry N (crystal structure)
B1 | binds | – | –
B2 | binds | binds | –
B3 | – | – | 2
